Experimental data: publication PMC5010500 (Journal of molecular biology, 2016)

Key:
[1] = target: T1, human Keap1 Kelch domain (residues 322-624) (human, UniProt Q14145 322-624); assay: native MS
[2] = target: the molecule itself; assay: […]
[3] = target: full length human Keap1 (human, UniProt Q14145 1-624); assay: […]
[4] = target: T1, human Keap1 Kelch domain (residues …); assay: ITC

T1 sequence (Q14145 322-624): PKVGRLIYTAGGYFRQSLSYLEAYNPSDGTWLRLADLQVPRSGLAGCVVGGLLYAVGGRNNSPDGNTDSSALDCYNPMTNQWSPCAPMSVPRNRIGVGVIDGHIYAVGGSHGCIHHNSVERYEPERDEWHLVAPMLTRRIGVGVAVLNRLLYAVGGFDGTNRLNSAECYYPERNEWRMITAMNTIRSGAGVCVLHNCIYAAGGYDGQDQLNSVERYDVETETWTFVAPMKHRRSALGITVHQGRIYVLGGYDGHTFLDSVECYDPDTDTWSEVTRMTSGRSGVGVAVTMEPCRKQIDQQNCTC
Chain of full length human Keap1 (Q14145 whole entry, the tested form may be a part): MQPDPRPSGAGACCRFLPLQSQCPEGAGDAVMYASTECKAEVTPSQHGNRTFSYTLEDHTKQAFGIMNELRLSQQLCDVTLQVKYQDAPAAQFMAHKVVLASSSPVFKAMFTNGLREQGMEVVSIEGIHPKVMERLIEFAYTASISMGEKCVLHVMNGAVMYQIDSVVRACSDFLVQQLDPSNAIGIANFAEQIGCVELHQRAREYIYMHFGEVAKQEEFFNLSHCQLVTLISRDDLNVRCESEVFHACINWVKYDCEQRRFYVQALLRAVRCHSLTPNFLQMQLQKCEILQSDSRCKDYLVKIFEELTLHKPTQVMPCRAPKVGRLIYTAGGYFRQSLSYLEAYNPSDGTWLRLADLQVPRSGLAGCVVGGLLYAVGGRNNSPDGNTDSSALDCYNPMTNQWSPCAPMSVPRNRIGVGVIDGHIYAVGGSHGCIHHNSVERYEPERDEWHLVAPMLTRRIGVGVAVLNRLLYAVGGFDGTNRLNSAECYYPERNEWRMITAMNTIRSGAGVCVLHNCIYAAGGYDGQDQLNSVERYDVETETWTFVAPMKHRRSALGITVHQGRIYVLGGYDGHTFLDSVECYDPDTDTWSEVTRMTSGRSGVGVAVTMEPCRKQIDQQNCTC

Binder | stoichiometry N [1] | stoichiometry N [2] | stoichiometry N [3] | Kd [4]
MBP-tagged Marburg virus viral protein 24, wild type, full length (natural protein) MAELSTRYNLPANVTENSINLDLNSTARWIKEPSVGGWTVKWGNFVFHIPNTGMTLLHHLKSNFVVPEWQQTRNLFSHLFKNPKSTIIEPFLALRILLGVALKDQELQQSLIPGFRSIVHMLSEWLLLEVTSAIHISPNLLGIYLTSDMFKILMAGVKNFFNKMFTLHVVNDHGKPSSIEIKLTGQQIIITRVNMGFLVEVRRIDIEPCCGETVLSESVVFGLVAEAVLREHSQMEKGQPLNLTQYMNSKIAI | 1 | 2 | 1 mVP24 per Keap1 (2:2) | –
MBP-tagged mVP24 N-terminal truncation (residues 22-253) (domain or fragment) DLNSTARWIKEPSVGGWTVKWGNFVFHIPNTGMTLLHHLKSNFVVPEWQQTRNLFSHLFKNPKSTIIEPFLALRILLGVALKDQELQQSLIPGFRSIVHMLSEWLLLEVTSAIHISPNLLGIYLTSDMFKILMAGVKNFFNKMFTLHVVNDHGKPSSIEIKLTGQQIIITRVNMGFLVEVRRIDIEPCCGETVLSESVVFGLVAEAVLREHSQMEKGQPLNLTQYMNSKIAI | – | – | – | 77 ± 4 nM
